From patent publication US20260049151A1 (SHENGHE CHINA BIOPHARMACEUTICAL, published 2026)

B1: Antibody H (bispecific antibody, human IgG1, kappa)
light: QVQLQESGPGLVKPSETLSLTCTVSGSSLTSYGVHWVRQPPGKCLEGLGVIWPGGSTNYNSALMSRVTISKDNSKSQVSLKMSSLTAADTAVYYCARVTGTWYFDVWGQGTTVTVSSGGGGSGGGGSGGGGSDIQMTQSPSSLSASLGDRVTISCSASQGISNYLNWYQQKPDGTVKLLIYYTSTLHSGVPSRFSGSGSGTDYTLTISSLQPEDIATYYCQQYSKLPWTFGCGTKLEIKGGGGSGGGGSGGGGSDIVMTQSPATLSVSPGERATLSCKASQNVGSNVDWYQQKPGQSPRVLIYKASIRYTGIPARFSGSGSGTEFTLTISILQSEDFAVYFCMQSKSYPITFGQGTKLEIKRTVAAPSVFIFPPSDEQLKSGTASVVCLLNNFYPREAKVQWKVDNALQSGNSQESVTEQDSKDSTYSLSSTLTLSKADYEKHKVYACEVTHQGLSSPVTKSFNRGEC
heavy: not shown
notes: IgG1 subtype; full-length TNFR2 antibody with 4-1BB scFv at the N-terminus of the light chains
B2: Antibody E1 (bispecific antibody, human IgG1, kappa)
light: DIVMTQSPATLSVSPGERATLSCKASQNVGSNVDWYQQKPGQSPRVLIYKASIRYTGIPARFSGSGSGTEFTLTISILQSEDFAVYFCMQSKSYPITFGQGTKLEIKRTVAAPSVFIFPPSDEQLKSGTASVVCLLNNFYPREAKVQWKVDNALQSGNSQESVTEQDSKDSTYSLSSTLTLSKADYEKHKVYACEVTHQGLSSPVTKSFNRGEC
heavy: not shown
notes: IgG1 subtype; full-length TNFR2 antibody with 4-1BB scFv at the C-terminus of the heavy chains

What was measured:
Human-TNFR2-His = target: T1, Human-TNFR2-His (human, UniProt P20333 23-257); experiment: ELISA: Human-TNFR2-His coated (0.1 ug/mL), antibody titrated, goat anti-human IgG Fc detection (Example 2)
T1 construct: Bought protein; also called human TNFR2 protein; TNFR2 protein; not shown: His tag
T1 sequence (looked up): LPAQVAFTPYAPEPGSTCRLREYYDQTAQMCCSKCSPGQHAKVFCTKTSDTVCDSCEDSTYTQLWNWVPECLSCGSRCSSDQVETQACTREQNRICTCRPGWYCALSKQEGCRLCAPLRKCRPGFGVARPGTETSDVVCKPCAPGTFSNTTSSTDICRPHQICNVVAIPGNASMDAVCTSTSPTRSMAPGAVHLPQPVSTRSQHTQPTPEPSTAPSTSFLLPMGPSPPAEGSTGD
Experimental: Human-TNFR2-His (manufacturer: SINO, CAT: 10417-H08H, LOT: LC15NO0412) was diluted to 0.1 μg/mL with a coating solution (1×PBS, pH7.4), and coated in 96-well ELISA plate at 100 µL/well overnight at 4° C. The coating solution was poured off. Each well was washed with 1×PBST at 300 μL, washed 4 times with a plate washer, and patted dry on a flat paper. It was blocked with 3% skim milk powder at 300 μL/well, and incubated at 37° C. for 1 h. The blocking solution was poured off, washed 4 times with a plate washer, and patted dry on a flat paper. Negative control and positive control were set up. […] The positive control and antibody were diluted to 10 μg/mL with 3% skim milk powder as the starting concentration, and then diluted by 3-fold gradient (11 gradients in total), and a blank well was set up and only the diluent was added. It was incubated at 37° C. for 1 h at 100 μL/well. The liquid in the well was discarded, washed 4 times with a plate washer, and patted dry on a flat paper. Goat anti-human IgG Fc was diluted with 3% skim milk powder at 1:10000, and incubated at 37° C. for 1 h at 100 μL/well. It was washed 6 times with a plate washer, and patted dry on a flat paper. TMB color developing solution was added at 100 μL/well, and wrapped with aluminum foil. Color development was performed at 37° C. in the dark for 8 min. Termination solution 1M HCl was added to terminate the color development reaction at 100 μL/well. Readings were taken at 450 nm on an ELISA reader.

Human 4-1BB His = target: T2, Human 4-1BB His (human, UniProt Q07011 24-186); experiment: ELISA: Human 4-1BB His coated (0.2 ug/mL), antibody titrated, goat anti-human IgG Fc detection (Example 3)
T2 construct: Bought protein; lots 198-2146F1-W6 and 2407c-214FF1-YC; also called human 4-1BB protein; 4-1BB protein; not shown: His tag
T2 sequence (Q07011 24-186 limits assumed): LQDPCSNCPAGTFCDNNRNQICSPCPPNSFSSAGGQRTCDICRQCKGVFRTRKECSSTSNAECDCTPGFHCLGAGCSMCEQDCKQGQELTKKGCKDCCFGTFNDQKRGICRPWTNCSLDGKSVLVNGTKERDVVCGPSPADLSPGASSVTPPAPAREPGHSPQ

Binder	EC50 (read off the curve) (Human-TNFR2-His) [nM]	EC50 (read off the curve) (Human 4-1BB His) [nM]
B1	~0.08	
B2		~0.2
